Reference: publication PMC3942532 (2014)

Target: dynorphin A-(1-13)-OH 1-13 (Homo sapiens, UniProt P01213)
Assay: radioligand competition

B1: mu opioid receptor (protein)
chain: MDSSTGPGNTSDCSDPLAQASCSPAPGSWLNLSHVDGNQSDPCGLNRTGLGGNDSLCPQTGSPSMVTAITIMALYSIVCVVGLFGNFLVMYVIVRYTKMKTATNIYIFNLALADALATSTLPFQSVNYLMGTWPFGTILCKIVISIDYYNMFTSIFTLCTMSVDRYIAVCHPVKALDFRTPRNAKIVNVCNWILSSAIGLPVMFMATTKYRQGSIDCTLTFSHPTWYWENLLKICVFIFAFIMPVLIITVCYGLMILRLKSVRMLSGSKEKDRNLRRITRMVLVVVAVFIVCWTPIHIYVIIKALITIPETTFQTVSWHFCIALGYTNSCLNPVLYAFLDENFKRCFREFCIPTSSTIEQQNSTRVRQNTREHPSTANTVDRTNHQLENLEAETAPLP
- Ki: 4 nM
